Measured values as given in the nanobody polyreactivity screen of Harvey et al. (2022).

assay: yeast display, Sf9 membrane polyspecificity reagent, FACS + sequencing; frameworks hold sequencing errors
How it was run: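 In a synthetic yeast display library (Saccharomyces cerevisiae BJ5465), nanobody expression was induced with galactose for 36–48 hours. FACS gates were set low and high (top ~1%) using anti-HA fluorescence for expression and streptavidin fluorescence for binding of the Sf9 membrane reagent. Each polyreactivity label is drawn from the gate of origin.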

Sequence	polyreactivity (PSR sort gate)
QFQLVESGGGLVQAGGSLRLSCAASGRIFDTYVMRWYRQAPGKERDLVAAISGSGGSTYYAYSVKGRFTISRDNAKNTVYLQMNSLKPEDTEVYYCAAARRYYAYRYDYWGQGTQVTVSS	high polyreactivity
QFQLVESGGGLVQAGGSLRLSCAASGRIFGDNAMGWYRQAPGKERELVADIDSGGRTNYADSVKGRFTISRDNAKNTVYLQMNSLKPEDTAVYYCARDDIAYLVEYDYWGQGTQVTVSS	low polyreactivity
QFQLVESGGGLVQAGGSLRLSCAASGRIFIIYAMGWYRQAPGKERELVAAINRGATTNFADSVKGRFTISRDNAKNTVYLQMNSLKPEDTAVYYCAACSGPSLSRFLRYANDYWGQGTQVTLSS	high polyreactivity
QFQLVESGGGLVQAGGSLRLSCAASGRIFLSYAMGWYRQAPGKERELVAAITLSGGSTYYADSVKGRFTISRDNAKNTVSLQMNSLKPEVTGVYYCAADAWFSLRYAPRSYAYGYWGQGTQVTVSS	low polyreactivity
QFQLVESGGGLVQAGGSLRLSCAASGRIFPLYVMGWYRQAPGKERELVAAMSRSGSRTYYADSVKGRFTISRDNAKNTVYFQMNSLKPEDTAVYYCAAVPDGTTRYDGDYWGQGTQVTVSS	high polyreactivity
QFQLVESGGGLVQAGGSLRLSCAASGRIFYGYAMVWYRQAPGKERDLVAAISWRGGRTYYADSVKGRFTISRDNAKNTVYLQMNSLKPEDTAVYYCNKVFPPQGQLRNMYYWGQGTQVTVSS	high polyreactivity
QFQLVESGGGLVQAGGSLRLSCAASGRIFYSYAIGWYRQAPGKERELVAAINWSSVRTYYADSVKGRFTISRDNAKNTVYLQMNSLKPEDTAVYYWNAYSTEWGRYDYWGQGTQVTVSS	high polyreactivity
QFQLVESGGGLVQAGGSLRLSCAASGRIFYYYAMGWYRQAPGKERELVAAITRGGSTYADSVKGRFTISRDNAKNTVYLQMNSLKPEDTAVYYCAATYWYWDFRWMDYWGQGTQVTVSS	high polyreactivity
QFQLVESGGGLVQAGGSLRLSCAASGRISYAYAMGWYRQAPGKEREFVAAISGSGGSTYYADSVKGRFTISRDNAKKTVYLQMNSLKPEDTAVYYCDAGSGEYYGGKRYYWGQGTQVTVSS	low polyreactivity
QFQLVESGGGLVQAGGSLRLSCAASGRIYGLYAKGWYRQAPGKERELVAAISSTGGRTFYADSVKGRFTISRDNAKNTVYFQMNSLKPDDTAVYYCAAYRYSRYRQRYNYCGQGTQVTVSS	high polyreactivity
QFQLVESGGGLVQAGGSLRLSCAASGRTFGGYAMGWYRQAAGKVREFVAALTYRGASTYYSDSVKGRFTISRDNAKNTVYFQMNSLKPEDTAVYYCAAEGSIKYFVGYTWGYNYWGQGTQVTVSS	low polyreactivity
QFQLVESGGGLVQAGGSLRLSCAASGRTFGRYAMGRDRPAPGKERELVAAINSGGSTYYADSVKGRFTISRDNAKNTVYLQMMSLKPEDTAVYYCDTQWTWKLGYWGQGTQVTVSS	high polyreactivity
QFQLVESGGGLVQAGGSLRLSCAASGSIFLSNAMGWYRQAPGKERELVADIDWTGGDTYYADSVKGRFRISRDNAKNTVYLQMNSLKREDTAVYYCAADYGYRNLRTEYGYWGQGTQVTVSS	low polyreactivity
QFQLVESGGGLVQAGGSLRLSCAASGSIFRAYAMGRYRQATGKERELVADISRSGGSTYYADSVKGRFTISRDNAKNTVYLQMNSLTQEVTAVYYCAAVFYLYSNLYGEYDYWGQGTQVTVSS	low polyreactivity
QFQLVESGGGLVQAGGSLRLSCAASGSIFRENAMGWYRQAPGKEMELVAAIYVRDGDTFYADSVKGRFTISRDNAKNTVYLQMNSLKPEDTAVYYCAADQQKWYTGYDYWGQCTQVTVSS	low polyreactivity
QFQLVESGGGLVQAGGSLRLSCAASGSIFSINAMGWYRQAPGKERELVAVISWIGGNTYYADSVKGRFTISRDNAKNTVYLQMNSLKPEDTAVYYCAVATGPVSYRRYYWGQGTQVTVSS	high polyreactivity
QFQLVESGGGLVQAGGSLRLSCAASGSISDIYAMGWYRQAPGKERELVASISSGGITNYADSVKGRFTISRDNAKNTVYLQMNSLKPEDTAVYYCAKDRYHISFFYQMEYWGQGTQVTVSS	low polyreactivity
QFQLVESGGGLVQAGGSLRLSCAASGSSFTVYAMGWYRQAPGKETELVAAISYVGGSTYYAASVKGRFTISRDNAKNTVYLQMNSLKPEDTAVYYCAADPYYSYGYYHAHGRDVGYWGQGTQVTVSS	low polyreactivity
QFQLVESGGGLVQAGGSLRLSCAASGSTFDPYAMGWDTQAPGKEREFLADIDSSVGSTFYADSVKGRFTISRDNPKNTVYLQMNSLKPEDTAVYYCAAASRVAKGRWRLYDYWGQGTQVTVSS	high polyreactivity
QFQLVESGGGLVQAGGSLRLSCAASGSTFFVYDMGWYRQATGKEGELVAAISISDGGTYYADSVKGRFTISRDNAKNTVYLQMKSLKPEDTAVYYCAADYSERYFPGYDYWGQGTLVTVSS	low polyreactivity
QFQLVESGGGLVQAGGSLRLSCAASGSTFGSYAMGWYRQAPAKESELVAAITASGGSTNYADSVKGRFTISRDNAKNTVYLQMNSLKPEDTAVYYCAADTTYSPLSIEYDYWGQGTQVTVSS	low polyreactivity
QFQLVESGGGLVQAGGSLRLSCAASGSTFVPNTMGWYRQAPGIERELVAAITYSGGSTYYADSVKGRFTISRDNAKNTVYLQMHSLKPEDTAVYYCAAEGTTWYYDMDYWGQGTQVTVSS	low polyreactivity

Sequence	polyreactivity (PSR sort gate)
QFQLVESGGGLVQAGGSLRLSCAASGSTIPRNAMGWYRQAPGKERELVAVITGSGGSTYYADSVKGRFTISRDNAKNTVYLQMNSLKPEDTAVYYCAAKYRFYGFDYWGQGTQLTVSS	high polyreactivity
QFQLVESGGGLVQAGGSLRLSCAASGSTLAPYVMGWYRQAPGKDRELVAVISTRTGRPYYADSVKGRFTISRDNAKNTVYLQMNSLKPEDTGVYYCAARKKTTYRDWGRHDYWGQGTQVTVSS	high polyreactivity
QFQLVESGGGLVQAGGSLRLSCAASGYTFGNYAMGWYRPAPGNVRVLVAGISWSGGSTYYADSVKGRFTISRDNAKNTVYLQMNSLKPEDTAVYYCATRVQGYHNGWYAYLGQGTQVTVSS	high polyreactivity
QFQLVESGGGLVQAGGSLRLSCAASGYTFGQYDMGWYRQAPGKERELVAAISTGGVSTYYADSVKGRFTISRDNAKNTVYLQMNSLKPEDTAVYYCATTPYVRYDYWGQGTQVTVSS	low polyreactivity
QFQLVESGGGLVQAGGSLRLSCASSGSIFWYYAMGWYRQAPGKERELVATITSGGRTDYADSVKGRFTISRDNAKNTVYLQMNSLKPEDTAVYFCAAGPRWRPRSYDYWGHGTQVTVSS	high polyreactivity
QFQLVESGGGLVQAGGSLRLSCASSGSIFYGNAMVCYRQAPGKERELVADIRWSGGSTYYADSVKGRFTISRDNAKNTVYLQMNSLKPEDTAVYYCAVRSPYRWRYASRYHEYDYWGQGTQVTVSS	low polyreactivity
QFQLVESGGGLVQAGVSLRLSCAASGSIILVYAMGLYIQATGKETELVPAITTRGSSTYYADSVKGRFKISRDNAKNTYYLQMNSLKPEDTEVYYCAKEFPGTQGRGVTGFSGTALGYWGQGTKVTVSS	low polyreactivity
QFQLVESGGGLVQARGSLRLSCAASGITFKEYAMGWYRQAPGTERELVAAISKSGGSTYYADSVKGRFTISRDNAKNTVYLQMTSLKPEDTAVYYCAADYAEYEYGDYYWGQGTQVTVSS	low polyreactivity
QFQLVESGGGLVQEGGSLRLSCAASGRTLAKNAMGWYRQAPGKEREFVAAISRRGGSTYYADSVKGRFTISRDYAKYTVYLQLNSLKREDTAVYYCARASRQGYYQLSYDEFDYWGQGTQVTVSS	high polyreactivity
QFQLVESGGRLVQAGGSLRLSCAASGFIFWYNAMGWYRQAPGKEREFVAAISSGGSTTYADSVKGRFTISRDNAKNTVYLQMNSLKPEDTAVSYCAAGSYDYDYWGQGTQVTVSS	low polyreactivity
QFQLVESGRGLVQAGGGLRLSCAASGLTFGYYTMGWYRQAPGKERELVAAINYSGGSTYYADSVKGRFTISRDNAKNTVYLQMNCLKPEDSAVYYCAAEGPVYTTYEYWGQGNQVTVSS	low polyreactivity
QFQLVESGRGLVQAGGSLRLSCAASGNTFGPYAMGWYRQAPGKERELVAAISSGGSTNYADSVKGRFTISRDNAKNTVYLQMNSLKPEDTAVYYCAAPYRSYVRYKYDYWGQGTLVTVSS	low polyreactivity
QFQLVESGRGLVQAGGSLRLSCAASGSIFYSYAMGRYRQAPGKEREFVATISDSSGSTYYADSVKGRFTISRDNAKNTVYLQMNSMIPEDTAVYYCATTDSYGYYGYGDWGQGTQVTVSS	low polyreactivity
QFQLVESRGGLVQAGGSLRLSCAASGFIFTHYAMGWYRQAPGKERELVAAITRRGGDTHYADSVKGRFTISRDNPKNTVYLQMNSLKPEDTAVYYSNAKRYSWGYYPAFDYWGHGTQVTVSS	high polyreactivity
QFQLVESVGGLVQAGGILRLSCAASGRNYNSYAMGWYRKAPGKERELVAAISRTGASTYYSDSVKGRFTISRDNAKNTVYLQMNSLKPEDTAVYYCAADANSGDGYYWGQGTQVTVSS	high polyreactivity
QFQLVQSGGGLVQAGGSLRLSCAASGFILEPNAVGWYRQAPGKERELVATISYSGGGTYYADSVKGRFTISRDNAKNTVYLQLNCLKPEDTAVYYCAVDWYYYVWWYDYWGQGTHVTVSS	high polyreactivity
QFQPVESGGGLVQAGGSLRLSCAASGFTFYRYAMGWYRPAHGKERELVAAITFSGSSTYYADSVKGRFTISRDNAKNTVYLQMNSLKEEDTAVYYCAAGGSFWYFSPRYGYWGQGTQVTVSS	high polyreactivity
QGHLVESGGGLVHAGGSLRLSCAASGRIFDVNAMGWYRQAPWKERELVAAISSGGNTKYADSVKGRFTISRDNAKNTVYLQMNSLKPEDTAVYYCIADGKAGGDYDYWGQGTQVTVSS	low polyreactivity
QGQHVDSGGVLVQAGGSLRLSCAASGITVYLYAMGWYRPAPGKEREMVATISRSGGSTYADSVKGRFTISRDNAKNTVYLQMYSLKPEDSAVYYCNADVLSTGYIAYDYWGQGTQVTVSS	low polyreactivity
QGQLEESGGGLVQAGGSLRLSCAASGFIFGGNDMGWYRQAPGKERELVAAISKSGGRTYYADSVKGRFTISRDNAKNTVYLQMNSLKPEDTAVYYCAAVPGRTAEDYGEDYWGQGTQVTVSS	high polyreactivity
QGQLEESGGGLVQAGGSLRLSCAAYGRIFYEYAMGLYRQAPGKERELVAISTAGCNTYYADSVKGRFTISRDNGKNTDYLQMNILKPEDTAVYYCAARLQYYPYYYWGQGTQVTVSS	high polyreactivity
